Test results published in paper PMC9418810.

Target: AcMYB1 (full length) in the AD plasmid pGADT7 (Allium cepa (onion))

AcANS or AcF3H1 promoter-luciferase reporter activation in Arabidopsis leaf protoplasts, coexpression of AcB2 and AcMYB1 compared with AcMYB1 alone: > 2.5 fold
Substance: AcB2 (full length, 1–615 aa) in the BD plasmid pGBKT7 (natural protein)
